As usually defined, the Kd is the free concentration of one partner at which half of the binding sites on the other are occupied at equilibrium, for simple one-to-one binding.

One series concerns the target REV7 (Homo sapiens) (UniProt Q9UI95). Particulars: cited from earlier work.
For a further series, the target named is T1, SHLD3 CTD (human, UniProt Q6ZNX1 140-250).
T1 sequence: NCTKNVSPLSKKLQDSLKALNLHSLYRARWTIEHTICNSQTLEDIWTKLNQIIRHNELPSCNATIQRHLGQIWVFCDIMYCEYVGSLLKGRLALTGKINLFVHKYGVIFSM
The experiment in a line: fluorescence anisotropy; Kd similar to the Shieldin complex; 20 mM Na-HEPES pH 7.5, 5% glycerol, 100 mM NaCl, 0.5 mM TCEP; 10 nM DNA, 30 min, room temperature. Particulars: protein: recombinant, tags: MBP or GST tag, cleaved (PreScission). A general note: Fluorescence polarisation rises when a labelled molecule tumbles more slowly, as on binding a larger partner.

Series [1] concerns the target SHLD3 1-83;SHLD2 1-60;REV7 (human;human;human, UniProt Q6ZNX1;Q86V20-2;Q9UI95 1-83;1-60;1-211, del84-250||). The experiment in a line: fluorescence anisotropy; 20 mM Na-HEPES pH 7.5, 5% glycerol, 100 mM NaCl, 0.5 mM TCEP; 10 nM DNA, 30 min, room temperature. The conditions noted are these: protein: recombinant;recombinant;recombinant; tags: ;;; copies: 1;1;2; label: 5(6)-FAM.

Series [2] concerns the target T2, SHLD3;SHLD2 1-95;REV7 R124A (human;human;human, UniProt Q6ZNX1;Q86V20-2;Q9UI95 1-250;1-95;1-211, ||R124A). Described as above. The conditions noted are these: protein: recombinant;recombinant;recombinant, tags: tags cleaved (PreScission);GST tag, cleaved (PreScission);tags cleaved (PreScission), copies: 1;1;2.
Target sequence in this assay (Q6ZNX1 whole entry, chain 1 of 3): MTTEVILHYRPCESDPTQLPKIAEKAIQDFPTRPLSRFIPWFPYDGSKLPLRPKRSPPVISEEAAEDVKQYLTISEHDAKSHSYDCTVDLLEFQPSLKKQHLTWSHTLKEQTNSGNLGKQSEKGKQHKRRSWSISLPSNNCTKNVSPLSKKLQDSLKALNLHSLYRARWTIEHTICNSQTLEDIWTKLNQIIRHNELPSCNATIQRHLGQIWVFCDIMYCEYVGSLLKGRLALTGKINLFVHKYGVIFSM
Target sequence in this assay (Q86V20 1-95, chain 2 of 3): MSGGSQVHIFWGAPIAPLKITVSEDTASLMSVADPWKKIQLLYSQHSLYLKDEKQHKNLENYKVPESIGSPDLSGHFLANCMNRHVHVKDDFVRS
Target sequence in this assay (Q9UI95 whole entry R124A, chain 3 of 3): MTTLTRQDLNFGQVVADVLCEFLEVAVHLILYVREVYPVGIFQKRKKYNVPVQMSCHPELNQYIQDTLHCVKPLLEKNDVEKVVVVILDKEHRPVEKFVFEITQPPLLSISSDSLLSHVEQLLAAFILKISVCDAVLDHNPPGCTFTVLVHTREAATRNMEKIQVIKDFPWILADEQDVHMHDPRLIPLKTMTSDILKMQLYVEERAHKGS
Another series has as its target T3, REV7^WT (human, UniProt Q9UI95 1-211).
T3 construct: REV7 (MAD2L2), human; The methods say in general that the MBP or GST tag was cleaved with PreScission protease; here the protein is labelled without a tag; also called MAD2L2; wild-type REV7; source: E. coli LOBSTR, purified (metal chelating column, tag cleavage, SEC); not shown: hexahistidine-MBP or GST, N-terminal, cleaved
The experiment in a line: SPR; SHLD3^1–62 or REV3^1871–2014 immobilised on SCR HC30M chip by EDC-NHS; REV7 injected in two-fold dilutions; buffer B with 0.05% Tween 20. The conditions noted are these: both partners purified. In general terms: Surface plasmon resonance follows binding to a sensor surface in real time, without labels.

Series [3] has as its target REV7^R124A (human, UniProt Q9UI95 1-211, R124A). In words: SPR.
The target of series [4] is T4, REV7^R124A (human, UniProt Q9UI95 1-211, R124A).
T4 construct: REV7 (MAD2L2), human; also called dimerization mutant; source: E. coli LOBSTR, purified (metal chelating column, tag cleavage, SEC); not shown: hexahistidine-MBP or GST, N-terminal, cleaved
The experiment in a line: SPR; SHLD3^1–62 or REV3^1871–2014 immobilised on SCR HC30M chip by EDC-NHS; REV7 injected in two-fold dilutions; buffer B with 0.05% Tween 20. The conditions noted are these: both partners purified.
T4 sequence (Q9UI95 whole entry R124A): as the sequence (Q9UI95 whole entry R124A, chain 3 of 3) above

In series [5] the target is T2, SHLD3;SHLD2 1-95;REV7 R124A. In words: analytical size-exclusion chromatography co-migration; excess DNA; 20 mM Na-HEPES pH 7.5, 5% glycerol, 100 mM NaCl, 0.5 mM TCEP; 10 nM DNA, 30 min, room temperature. Particulars: protein: recombinant;recombinant;recombinant, tags: tags cleaved (PreScission);GST tag, copies: 1;1;2, label: 5(6)-FAM. A general note: Size exclusion chromatography separates by hydrodynamic size, large species first.
Target sequence in this assay (Q9UI95 whole entry R124A, one chain of several): as the sequence (Q9UI95 whole entry R124A, chain 3 of 3) above

For the next series, the target named is T5, preformed REV7^ΔN-SHLD3 (human, UniProt Q9UI95 15-211; Q6ZNX1 1-62).
T5 construct: REV7 (MAD2L2), human, without the N-terminal 14 residues; as m8; SHLD3, human, residues 1-62; as m16; source: E. coli LOBSTR, purified components, complex formed beforehand; not shown: hexahistidine-MBP or GST, N-terminal, cleaved; GST, N-terminal, kept
The experiment in a line: SEC; 5 µM preformed REV7^ΔN-SHLD3 with 10 µM MBP-SHLD2^1–60 and MBP-REV7^core, 30 min on ice, Superdex-200 3.2/300 in buffer B. The conditions noted are these: both partners purified.

Series [6] has as its target T6, pre-formed GST-SHLD3^1–62-REV7 (human, UniProt Q6ZNX1 1-62; Q9UI95 1-211).
T6 construct: SHLD3, human, residues 1-62; as m16; REV7 (MAD2L2), human; as m1; also called GST-SHLD3^1–63-REV7 (methods); pre-formed REV7-SHLD3; source: E. coli LOBSTR, purified components, complex formed beforehand in the absence of SHLD2; not shown: GST, N-terminal, kept; hexahistidine-MBP or GST, N-terminal, cleaved
The experiment in a line: pull-down; MBP-SHLD2^1–60 as bait, five-minute incubation at 4 °C with REV7 and GST-SHLD3^1–62 or with pre-formed GST-SHLD3^1–62-REV7 and additional REV7. Particulars: both partners purified.

The mark [7] stands for this setting: label: 5(6)-FAM on strand 1, blunt.

T3 sequence (Q9UI95 whole entry): as the sequence (Q9UI95 whole entry R124A, chain 3 of 3) above, with A124R counted along it
T6 sequence (Q9UI95 whole entry, the tested form may be a part, one chain of several): as the sequence (Q9UI95 whole entry R124A, chain 3 of 3) above, with A124R counted along it
SHLD3 1-83;SHLD2 1-60;REV7, sequence (Q9UI95 whole entry, stated change not applied, one chain of several): as the sequence (Q9UI95 whole entry R124A, chain 3 of 3) above, with A124R counted along it
T5 sequence (Q9UI95 15-211, stated change not applied, one chain of several): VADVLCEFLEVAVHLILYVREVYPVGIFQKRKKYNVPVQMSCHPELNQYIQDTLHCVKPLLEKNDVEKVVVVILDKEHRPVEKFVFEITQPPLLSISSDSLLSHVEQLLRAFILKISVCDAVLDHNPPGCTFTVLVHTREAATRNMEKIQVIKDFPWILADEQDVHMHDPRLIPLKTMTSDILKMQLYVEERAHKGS

As to REV7 (from UniProt Q9UI95), the Kd in the series with REV7 (Homo sapiens) was 2000 nM.

B1: non-telomeric ssDNA (ssDNA)
DNA: AGTGCCAGTGCC
With B1, the binding result with SHLD3 CTD (label: 5(6)-FAM) is “binds”; in series [1], “no binding”. Also, in series [2] (label: 5(6)-FAM), the Kd was 137 nM.

B2: telomeric ssDNA (ssDNA)
DNA: TTAGGGTTAGGG
In the case of B2, the binding result with SHLD3 CTD (label: 5(6)-FAM) is “binds”. For the same molecule, the Kd in series [2] (label: 5(6)-FAM) is 207 nM.

B3: REV3^1871–2014 (domain or fragment, human, UniProt O60673 1871-2014, looked up)
chain: TPRTANILKPLMSPPSREEIMATLLDHDLSETIYQEPFCSNPSDVPEKPREIGGRLLMVETRLANDLAEFEGDFSLEGLRLWKTAFSAMTQNPRPGSPLRSGQGVVNKGSSNSPKMVEDKKIVIMPCKCAPSRQLVQVWLQAKE
notes: REV3, human, residues 1871-2014 (holds RBM1 1875-1896 and RBM2 1991-2012); Named without a tag; the methods say in general that tags were cleaved; source: E. coli LOBSTR, purified; not shown: hexahistidine-MBP or GST, N-terminal, cleaved
With B3, the binding result in the series with REV7^WT is listed as “binds”.

B4: SHLD3^1–62 (domain or fragment, human, UniProt Q6ZNX1 1-62, looked up)
chain: MTTEVILHYRPCESDPTQLPKIAEKAIQDFPTRPLSRFIPWFPYDGSKLPLRPKRSPPVISE
notes: the methods say in general that tags were cleaved; also called SHLD3^RBM; source: E. coli LOBSTR, purified; not shown: hexahistidine-MBP or GST, N-terminal, cleaved
Turning to B4, the Kd was ~67 nM in the series with REV7^R124A [3] and ~50 nM in the series with REV7^WT. The binding result with REV7^R124A [4] is given as “binds”.

B5: 50 nt ssDNA (ssDNA)
DNA: AAGGGGAGCGGGGGAGGATAATAGGAAGGGGAGCGGGGGAGGATAATAGG
As for B5, the binding result in series [5] is reported as “binds”.

B6: MBP-SHLD2^1–60 (domain or fragment, human, UniProt Q86V20-2 1-60, looked up)
chain: MSGGSQVHIFWGAPIAPLKITVSEDTASLMSVADPWKKIQLLYSQHSLYLKDEKQHKNLE
notes: SHLD2, human, N-terminal residues 1-60; source: E. coli LOBSTR, purified; not shown: hexahistidine-MBP, N-terminal, kept
For the molecule B6, the binding result (with preformed REV7^ΔN-SHLD3; in series [6]) was “binds” each time.

B7: dsTelo (dsDNA)
DNA 1: TTAGGGTTAGGG
DNA 2: CCCTAACCCTAA
Take B7: in the series with SHLD3 CTD (setting [7]), the binding result is listed as “binds”. The Kd in series [2] (setting [7]) is 180 nM.

B8: non-telomeric dsDNA (dsDNA)
DNA 1: AGTGCCAGTGCC
DNA 2: GGCACTGGCACT
Take B8: the binding result with SHLD3 CTD (setting [7]) is given as “binds”. Also, in [2] (setting [7]), the Kd is 166 nM.

(Values after article PMC10082759, “Shieldin complex assembly kinetics and DNA binding by SHLD3” (Communications Biology, 2022).)
